{"source": "paper doi:10.1101/2020.12.31.425005", "about": "(bioRxiv, 2020)", "molecular_target": "the molecule itself", "assay": "crystal structure", "data": [{"protein": "Haemophilus ducreyi I51M-L72M-YhcB cytosolic region, residues 31-128 (domain or fragment, selenomethionine-labeled (Met-51, Met-72)) MKGNIQQQIQLKSELASAEAKMEEQKQQLERHFEQSANLLENMAEDYKKLYTHFAQNSEQLLPESNQVEFFKRLKNHANGDEDNQPRDYSDGSSGLLKS", "values": [{"measurement": "stoichiometry N", "value": 4}]}]}
